B1: library; numbered along this chain (parent)
chain: MATDAALRRLLRLHRTEIAVAVDSAFPLLHALADHDVVPEDKFQETLHLKEKEGCPQAFHALLSWLLTQDSTAILDFWRVLFKDYNLERYGRLQPILDSFPKDVDLSQPRKGRKPPAVPKALVPPPRLPTKRKASEEARAAAPAALTPRGTASPGSQLKAKPPKKPESSAEQQRLPLGNGIQTMSASVQRAVAMSSGDVPGARGAVEGILIQQVFESGGSKKCIQVGGEFYTPSKFEDSGSGKNKARSSSGPKPLVRAKGAQGAAPGGGEARLGQQGSVPAPLALPSDPQLHQKNEDECAVCRDGGELICCDGCPRAFHLACLSPPLREIPSGTWRCSSCLQATVQEVQPRAEEPRPQEPPVETPLPPGLRSAGEEVRGPPGEPLAGMDTTLVYKHLPAPPSAAPLPGLDSSALHPLLCVGPEGQQNLAPGARCGVCGDGTDVLRCTHCAAAFHWRCHFPAGTSRPGTGLRCRSCSGDVTPAPVEGVLAPSPARLAPGPAKDDTASHEPALHRDDLESLLSEHTFDGILQWAIQSMARPAAPFPS

Variants of: B1
Assay: AIRE transcriptional activation functional score (insulin promoter-GFP; nonsense median 0, synonymous median 1) (normalised score); higher = higher AIRE activity (more reporter activation)
Conditions: with insulin promoter-GFP reporter in HEK293
Protocol: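 Deep mutational scan of full-length human AIRE (codon-optimized cDNA, DT-POPCode NNN libraries over three regions) integrated at a Bxb1 landing pad in HEK293 cells carrying an insulin core promoter-GFP reporter at a Flp-In site. Cells were sorted for the top 10% GFP about 14 days after transfection. Variant frequency log-ratios (select vs non-select, TileSeq) were rescaled so that the nonsense median is 0 and the synonymous median is 1, then averaged over biological replicates.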

AIRE transcriptional activation functional score of substitutions, site by site:
L32: T -0.512, A -0.972, W -1.32, R -0.205, S -0.125, I -0.434, N -0.605, C -0.199, V -0.331, M -0.0821, P -0.841, G -0.111, Y 0.28, H -0.413, F -0.313, Q -0.665
H30: E 0.323, L 0.0371, S 0.156, D 0.0821, V -0.417, P -0.0919, I -0.51, K 0.682, W -0.339, C 0.429, T -0.172, R 0.24, A -0.75, F 0.0787, Q -0.357, N 0.384, M 0.839, G 0.000219, Y 1.23
S24: F 0.0274, D 0.577, R 0.239, W -0.0451, M 1.04, L -0.159, I 0.123, V 0.582, H -0.0302, Q -0.0656, Y 0.463, A -0.0275, T -0.0952, C 0.658, K 1.61, G 0.358, E 0.661, P -0.246
V22: K -1.05, N -0.13, T -0.0112, P -0.118, H 0.157, S -0.103, I 1.57, R 0.528, G -0.0564, A 0.0736, M -0.505, D -0.245, W -0.0929, L 0.487, Y -0.0365, E -1.03, F -0.0603, C -0.0794
D36: Y 0.501, S 0.294, K 0.212, G 0.788, W 0.641, L -0.0069, F -0.636, H -1.75, Q -0.178, E 1.34, T -0.367, P 0.171, N 1.07, C -0.525, V -0.422, I 0.0675, A 0.22, R 0.583, M -0.672
A25: I 0.925, P 0.792, F 0.583, L 1.16, V 1.01, Q 0.196, S 0.301, W -0.59, D 0.297, N -1.11, Y -0.882, K 0.411, G 0.475, T 0.533, H -1.85, R 0.337, C 0.493
E40: C -1.11, D 0.418, A -0.436
L28: P 0.00884, V 0.05, H -2.61, Q 0.552, D -0.558, R 0.297, G 0.239, C -0.067, E -1.34, A -0.115, N -1.05, F -0.285, S -0.39, I 0.53, M 0.175, Y -0.212, K 0.863, W -2.53, T 0.6
P27: W 0.934, D -0.285, L 0.398, Q 0.267, Y -0.654, V -0.229, I 0.28, S 0.41, F -0.037, H 0.254, E -0.123, C -0.00711, G 0.0337, T 0.0492, R 0.196, M -0.268, K 0.0588, A 0.562, N 0.263
V38: S -0.704, T 0.604, A -0.245, W -0.576, F -0.138, Q -0.0109, D -0.427, G -0.618, P -0.205, N -0.701, R 0.941, K 0.354, I 1.55, M 0.387, C 0.438, L 0.157, Y 0.622
F26: M -1, V -0.0518, T 0.422, K -0.369, S 0.0967, P 0.00822, Y -0.359, C -0.0618, E -0.35, Q -2.95, L -0.13, D 0.00972, N 0.281, I -0.664, A -0.171, W 1.21, G -0.298, H -0.678, R -0.107
V37: A -0.162, Y 0.262, L -0.0654, M -1.53, E -0.336, H 0.218, F 0.178, D 0.512, C -0.563, W -0.538, R 0.122, K 0.536, G 0.192, I 0.337, S -0.316
D34: I -0.247, V 0.0819, L 0.437, R -0.24, P 0.782, Y -0.0055, N 0.331, M -1.08, H 1.62, F 0.247, E -2.11, C -0.617, S -0.594, W -0.393, Q -0.011, G 0.43, A -0.1, T -1.22
P39: Q 0.348, T 1.25, L -0.0747, V -1.34, M -0.22, S 0.402, W 0.403, E 0.999, K -0.314, Y -1.28, A -0.568, G -0.241, R 0.0519, F 1.34, H 0.277
H35: M -0.719, R -0.213, K -0.196, D -0.476, W 0.553, E -0.848, G 0.0779, V 0.15, Y 0.805, Q -0.305, C -0.102, T -0.0166, S 0.352, N 0.76, I 0.107, A 0.00595, P 0.148, F 0.0268, L -0.231
A31: F -0.218, Y 1.22, G 0.0886, L 0.635, H -0.698, T -0.678, R -0.0467, N -0.416, V -0.00796, Q 0.778, D 0.894, C -0.0426, I 0.231, W -0.0372, S 0.0612, P -0.0989
D23: W -1, Q -0.673, V -0.286, L -0.372, A -0.24, Y -0.199, G 0.031, T -0.174, F 0.3, M 0.267, S 0.041, H 1.33, K -0.339, N -0.303, C -0.0222, R -0.0795, E 1.02, P -0.613, I 0.125
A33: G 0.554, V 1.53, I -1.54, D -1.07, C 0.846, T 0.426, Y 0.238, S 0.0699, R -0.705, E 0.898, K -0.895, P -0.0164, N 1.58, W 0.679, F 0.348, L 0.173
L29: V 0.342, A -0.0346, Q 0.317, R 0.468, H -0.121, N 0.195, I 0.187, K 0.34, W 0.224, C -0.201, Y -0.0248, M -0.19, S -0.0413, P -0.138, T -0.208, D -0.402, F -0.401, G -0.175
A21: L -0.19, G 0.0519, Y 0.166, R 0.00134, Q -0.205, I -0.0753, W -0.574, T -0.00846, N 0.54, H 0.216, S 0.0464, V 0.278, M 0.432, P 0.125
